Experimental data from patent publication US20060210570A1 (Genentech, published 2006).

B1: sHAI-1B(K401A) (other, human, UniProt O43278 36-465, looked up)
chain: GPPPAPPGLPAGADCLNSFTAGVPGFVLDTNASVSNGATFLESPTVRRGWDCVRACCTTQNCNLALVELQPDRGEDAIAACFLINCLYEQNFVCKFAPREGFINYLTREVYRSYRQLRTQGFGGSGIPKAWAGIDLKVQPQEPLVLKDVENTDWRLLRGDTDVRVERKDPNQVELWGLKEGTYLFQLTVTSSDHPEDTANVTVTVLSTKQTEDYCLASNKVGRCRGSFPRWYYDPTEQICKSFVYGGCLGNKNNYLREEECILACRGVQGGPLRGSSGAQATFPQGPSMERRHPVCSGTCQPTQFRCSNGCCIDSFLECDDTPNCPDASDEAACEKYTSGFDELQRIHFPSDKGHCVDLPDTGLCAESIPRWYYNPFSEHCARFTYGGCYGNKNNFEEEQQCLESCRGISKKDVFGLRREIPIPSTGSVE
B2: sHAI-1B(R260A) (other, human, UniProt O43278 36-465, looked up)
chain: GPPPAPPGLPAGADCLNSFTAGVPGFVLDTNASVSNGATFLESPTVRRGWDCVRACCTTQNCNLALVELQPDRGEDAIAACFLINCLYEQNFVCKFAPREGFINYLTREVYRSYRQLRTQGFGGSGIPKAWAGIDLKVQPQEPLVLKDVENTDWRLLRGDTDVRVERKDPNQVELWGLKEGTYLFQLTVTSSDHPEDTANVTVTVLSTKQTEDYCLASNKVGRCAGSFPRWYYDPTEQICKSFVYGGCLGNKNNYLREEECILACRGVQGGPLRGSSGAQATFPQGPSMERRHPVCSGTCQPTQFRCSNGCCIDSFLECDDTPNCPDASDEAACEKYTSGFDELQRIHFPSDKGHCVDLPDTGLCKESIPRWYYNPFSEHCARFTYGGCYGNKNNFEEEQQCLESCRGISKKDVFGLRREIPIPSTGSVE
B3: prostasin (recombinant human, soluble, active two-chain form purified from conditioned medium of CHO cells transfected with full-length prostasin) (enzyme)
chain: not shown
notes: also called purified prostasin; soluble prostasin

What was measured:
[1] = target: B3; experiment: cell-based or functional assay
[2] = target: B3; experiment: cell-based or functional assay; remark: listed apart in the source
aprotinin = aprotinin (UniProt P00974 36-93); experiment: affinity chromatography of prostasin on immobilised aprotinin
sHAI-1B(K401A) = target: B1; experiment: prostasin incubated with 20 nM mutant sHAI-1B, immunoblot (FIG. 2B)
Method: (§1) FIG. 2. […] Prostasin of indicated concentration was incubated with 20 nM wildtype sHAI-1B (A) or mutant sHAI-1B (B) at 37° C. for 0.5 or 2 h. The reactions were stopped by addition of SDS sample buffer with DTT. 30 μl of each sample was boiled or not boiled (as indicated) followed by immunoblotting analysis using anti-HAI-1B polyclonal antibody.
(§2) Prostasin was incubated with sHAI-1B comprising the entire extracellular domain of HAI-1B (Kirchhofer, Peek et al. 2003) at different molar ratios (FIG.2A).

sHAI-1B(R260A) = target: B2; experiment: incubation at 37 C, SDS-PAGE and immunoblot with anti-HAI-1B polyclonal antibody
Method: as §1, §2

| IC50 (nM), inhibition of prostasin amidolytic activity towards S2765 [1] [nM] | fold less potent than wildtype sHAI-1B in the prostasin inhibition assay [2] [fold] | inhibitory activity of KD2 relative to KD1 in prostasin enzymatic assays [2] [%] | binding result (aprotinin) | binding result (sHAI-1B(K401A)) | binding result (sHAI-1B(R260A)) | Binder |
| --- | --- | --- | --- | --- | --- | --- |
| 75.3 | – | – | – | – | – | B1 |
| > 1000 | ≥ 18 | < 6 | – | – | – | B2 |
| – | – | – | binds | binds | no binding | B3 |
